The values that follow come from the RNAGym collection of RNA variant scans (doi:10.7554/elife.90254).

B1: LINE1-full (parent)
chain: UACGUAGGUGGUUUUCCCCUGAUAGUGCUAAGGGGGCCUGGAAGUUUGGACUGGGCAGAGCUCAACACAGCGUGGCAAAGUGGCUGUGGCUAGACUGCCUCUCUGGAUUCCUCGUCACUCAGCAGGGCAUCUCUGAGAGAAAUGCC

In the series the parent is B1. In words: self-cleavage, relative activity (ratio to wild type); higher = more cleavage; in vitro, sequencing; the parent is a self-cleaving ribozyme.
With U23C C113A, the self-cleavage was 0.4.

For the variant G21A U104A, the self-cleavage is 1.27. For U23A A77U the value was 1.24; for A22G A140G, 0.8; for A22G A140U, 1.05.

As to U20G U96C, the self-cleavage is 0.26. Regarding A22G A138G, the self-cleavage amounted to 1.25. To U20G U119C belongs 1.74. In the case of A22G A69C, the self-cleavage was determined as 0. For A22U G40U, the self-cleavage is 0.87. For the variant A22G U52G, the self-cleavage was found to be 0.92. For A22G U52C the value was 1.56; for U23C U119A, 1.17. Regarding U23C U119C, the self-cleavage amounted to 1.61.

Take U20G U91A: the self-cleavage worked out at 0.47. For U23C A141G the value was 1.4; for U23C U47C, 1.32; for A22G G80U, 1. Regarding G21A U39C, the self-cleavage came to 0.78.

For G21A A65U, the self-cleavage was found to be 0.21. As for A22U G106U, the self-cleavage turned out to be 1.72. With A22G A67C, the self-cleavage was found to be 0.23. With A22G U143C, the self-cleavage worked out at 0.97. For A22G U143A the value was 1.19.

For A22G U102A, the self-cleavage was found to be 1.5. With A22G U102C, the self-cleavage turned out to be 1.04. In the case of A22U U46A, the self-cleavage was found to be 1.2. On to U23A A64G, for which the self-cleavage was found to be 0.23. For the variant U23A A64U, the self-cleavage came to 0.34.

With A22U A50U, the self-cleavage was 0.39. Turning to A22G C37U, the self-cleavage is 0.94. Consider A22G A142G, for which the self-cleavage was 1.23. For A22G G93A, the self-cleavage amounted to 0.03.

In the case of G21A U96A, the self-cleavage is 0.06. Turning to U23C A67U, the self-cleavage stood at 0.18. Consider U20G U108C, for which the self-cleavage came to 1.97. For the variant A22G A117C, the self-cleavage came to 2.12. Take U23A A30G: the self-cleavage turned out to be 2.09.

Regarding G21A U29C, the self-cleavage came to 1.04. For A22U U115C the value was 1.77; for U23C U91G, 0.15; for U23C U91C, 1.18. A22G: the self-cleavage was 1.12. For the variant A22C, the self-cleavage worked out at 1.51. For A22U the value was 1.11. A22C A77U: the self-cleavage turned out to be 0.35.

On to A22G U91C, for which the self-cleavage was 0.65. As for A22G U91A, the self-cleavage came to 0.71. As for U23C A117G, the self-cleavage was 1.27. For the variant U23C A117U, the self-cleavage came out at 1.75. To U20C U115A belongs 1.54; to U23C G83A, 1.02. As for A22G G40A, the self-cleavage amounted to 0.55. For A22U G75A, the self-cleavage turned out to be 1. On to A22U G126A, for which the self-cleavage turned out to be 1.5.

As for A22G G53U, the self-cleavage came out at 1.29. For the variant A22U G72A, the self-cleavage was 1.27. With U23A U73A, the self-cleavage was determined as 1.16.

Consider A22U A43G, for which the self-cleavage amounted to 1.01. As for U23C A69U, the self-cleavage stood at 0.02. Consider A22U U87A, for which the self-cleavage was 0.1. For U20G G48A the value was 0.43; for U20G U112C, 0.76. To A22U U119G belongs 2.23; to A22U U102A, 1.41; to U20G U85A, 0.24. For A22G A31U the value was 0.86. Regarding A22G A31G, the self-cleavage came out at 0.35. For A22G A42U the value was 1.31. As to A22G A42G, the self-cleavage is 0.93.

In the case of A22G G75A, the self-cleavage is 1.13. A22G G139A: the self-cleavage came to 1.82. To U23C G55U belongs 0.22; to U20G A79G, 1.17. As for U23C C61A, the self-cleavage worked out at 0.06. Turning to A22G A77G, the self-cleavage was 1.77. Regarding A22G A77C, the self-cleavage amounted to 1.09. For the variant A22G A77U, the self-cleavage was found to be 0.79. Regarding U20G A136U, the self-cleavage came to 0.98. In the case of G21U A65C, the self-cleavage worked out at 0. Consider A22G C116U, for which the self-cleavage amounted to 0.24. As to U23A A141G, the self-cleavage worked out at 1.21. To A22G A129G belongs 1.45; to A22G A129U, 0.67; to A22G C66U, 0.07. For the variant G21A A31U, the self-cleavage was 1.43. In the case of U23C C131U, the self-cleavage turned out to be 1.84. To G21A U85C belongs 0.18. For the variant A22U A121G, the self-cleavage came to 1.

On to G21A G33A, for which the self-cleavage came out at 1.39. For U23C U46A the value was 0.92; for U23C U46C, 1.52; for A22G U46C, 1.04. In the case of G21A A94G, the self-cleavage was 0.1. Take A22G C76U: the self-cleavage is 1.39. U20G A121G: the self-cleavage turned out to be 1.27.

As to A22G U81A, the self-cleavage amounted to 1.67. For the variant A22G A50U, the self-cleavage came out at 1.32.

Turning to A22U U26A, the self-cleavage is 0.5. For U23A A50G, the self-cleavage was found to be 1.25. For U20G A57U, the self-cleavage was found to be 0.21. To U20G A69G belongs 1.05; to U23A G93A, 0.08; to U23A C98U, 0.26.

U23C A78U: the self-cleavage worked out at 2.06. On to U20G G41U, for which the self-cleavage amounted to 0.84.

On to U23A U108A, for which the self-cleavage came out at 1.44.

For the variant A22G U45G, the self-cleavage stood at 0.82. In the case of A22G U45A, the self-cleavage was determined as 0.94. Take U23A A129G: the self-cleavage came to 2.15.

With G21A U109C, the self-cleavage is 0.95.

As to G21A U109A, the self-cleavage is 0.64. As to U23C A94U, the self-cleavage amounted to 0.48. As to A22U U39C, the self-cleavage worked out at 1.2.

Take U23C C56U: the self-cleavage was 0.23. Regarding U20G, the self-cleavage was 1.1. Regarding A22G G127U, the self-cleavage was determined as 1.67.

Take A22G U115C: the self-cleavage was 1.18. In the case of A22G U115A, the self-cleavage is 1.52. As for U23C C133A, the self-cleavage amounted to 1.09.

Take U23C A138G: the self-cleavage was found to be 1.95. Turning to A22U G34A, the self-cleavage turned out to be 0.82. In the case of U23A U45A, the self-cleavage is 1.28. For U23C G34A the value was 1.26; for U23C G34U, 1.44. Turning to G21A U134A, the self-cleavage was determined as 1.17. Take U23C A42U: the self-cleavage is 1.22. As for U23C U52C, the self-cleavage turned out to be 1.43. A22U A117G: the self-cleavage is 0.65. Consider U23A A136G, for which the self-cleavage was 1.31. For U23A A136U, the self-cleavage amounted to 1.7.

U20C U109C: the self-cleavage was 1.34. Take U20C U109A: the self-cleavage is 1.54. Regarding A22G U39A, the self-cleavage was determined as 1.72. For the variant A22G U39C, the self-cleavage is 1.14. For U23C G122A the value was 1.61; for G21U C51A, 1.48; for U23C U85C, 0.22. U23C U85A: the self-cleavage came out at 0.07. To G21A A140G belongs 1.3; to U23C C111U, 1.34; to G21U U91C, 0.45.

On to A22G U85A, for which the self-cleavage was determined as 0.12.

For the variant G21A A67G, the self-cleavage is 0.48. Take A22U G114A: the self-cleavage came out at 1.44. Turning to A22U A31G, the self-cleavage stood at 1.04. As for U20G C37A, the self-cleavage was found to be 1.04. Consider G21U U115C, for which the self-cleavage was 2.18. For A22G A24G the value was 0.98. To G21A A77U belongs 1.18. To G21A A77G belongs 2.18; to A22U A141G, 1.29. For G21A U81A, the self-cleavage turned out to be 1.8. As for U20G A67U, the self-cleavage was determined as 0.11. For the variant A22G A92C, the self-cleavage was determined as 0.12.

Take U23A A65U: the self-cleavage was 0.53. As to G21A A78G, the self-cleavage turned out to be 1.31. Take A22G U108A: the self-cleavage was found to be 1.74. A22U U23C: the self-cleavage is 0.87. Consider U20C U132G, for which the self-cleavage was 0.46. Consider A22G G89A, for which the self-cleavage came out at 0.09. To A22G A79G belongs 0.76; to U23C U87C, 0.25; to A22G A94U, 0.37. In the case of A22G A94C, the self-cleavage worked out at 0.07. For the variant A22G A94G, the self-cleavage was 0.56. A22G A107G: the self-cleavage is 0.82.
